Test results reported in PMC12589211, “Development of lisinopril radioconjugates for nuclear imaging of the angiotensin converting enzyme” (European Journal of Nuclear Medicine and Molecular Imaging, 2025).

Assays:
[1] = tested on: human blood plasma proteins; assay: in vitro; format: in vitro ADME; conditions: 30 min, 0.1 µM
Description: (§1) The n-octanol/phosphate buffered saline (PBS) distribution coefficients (logD values) of the radioconjugates (20 MBq/nmol) were determined using the shake-flask method, as previously reported (Supplementary material). The binding affinity of the radioconjugates (20 MBq/nmol) to serum proteins was assessed using an ultrafiltration assay as previously reported (Supplementary Material). Methods: The plasma protein binding of the radioconjugates (20 MBq/nmol) was assessed using mouse blood plasma (Lot N°: 32321, Rockland Immunochemicals, Inc., USA,; concentration of mouse serum albumin (MSA): ⁓550 µM) and human blood plasma (Stiftung Blutspende SRK Aargau-Solothurn, Switzerland; concentration of human serum albumin (HSA): ⁓800 µM), respectively. After incubation in mouse and human blood plasma (0.3 MBq in 150 μL) for 30 min at 37 °C, the samples were cooled on ice and diluted with ice-cold PBS (150 μL). The plasma protein-bound fraction was separated from the free (plasma protein-unbound) fraction of each sample by means of Amicon centrifugal filters (Amicon Ultra, 0.5 mL, Merck Millipore; cutoff 10 kDa) by ultrafiltration using a centrifuge (14000 rcf, 30 min at 4 °C). Afterwards, the filter inserts were inverted and centrifuged again (200 rcf) for 3 min to recover the protein-bound fraction of the radioconjugates. The activities of the free radioconjugates in the filtrate, as well as in the filter insert and the plasma protein-bound radioconjugate (bound), were counted for activity separately using a γ-counter (Wallac Wizard 1480, PerkinElmer). The total activity (total) was determined as the sum of the activities in the filtrate, filter insert, and protein-bound fractions. The percentage of radioconjugate bound to MSA and HSA was calculated as Abound/Atotal*100. The results were presented as average ± SD of 3 independent experiments.

[2] = tested on: mouse blood plasma proteins; assay: in vitro; format: in vitro ADME; conditions: 30 min, 0.1 µM
Description: as §1

in vivo = conditions: female, mouse, iv, 3 MBq; for tissue uptake at 1 h / tissue uptake at 3 h: total radioactivity
Description: All applicable international, national, and/or institutional guidelines for the care and use of laboratory animals were followed and the animal experiments were carried out according to the guidelines of the Swiss Regulations for Animal Welfare. Preclinical studies were ethically approved by the Cantonal Committee of Animal Experimentation and permitted by the responsible cantonal authorities (License N° 75743). Five-week-old female Crl: CD1-Foxn^nu (CD1/nude) mice were obtained from Charles River Laboratories (Sulzfeld, Germany) and fed with standard rodent chow ad libitum. The mice were subcutaneously inoculated with HEK-ACE (8 × 10^6 cells in 100 µL PBS) on the left shoulder and approximately one week later with HEK-ACE2 cells (4–6 × 10^6 cells in 100 µL PBS) on the right shoulder. Imaging and biodistribution studies were performed 2‒4 weeks later when the xenografts reached a size of 100–300 mm^3.
Mice were intravenously injected with 3 MBq [^67Ga]Ga-DOTA-LIS-02 or 3 MBq [^67Ga]Ga-NODAGA-LIS-02 (0.5 nmol, 100 µL) or 3 MBq [^44Sc]Sc-DOTA-LIS-02 (1 nmol, 100 µL) diluted in saline containing 0.05% bovine serum albumin (BSA). The mice were sacrificed 1 h and 3 h after administration of the respective radioconjugate. Selected tissues and organs were collected, weighed and counted for activity using the γ-counter. The results were listed as a percentage of the injected activity per gram of tissue mass (% IA/g), using counts of a defined volume of the original injection solution measured at the same time to calculate decay-corrected values. Statistical analysis was performed by applying a regular one-way ANOVA test with a Tukey’s multiple comparison post‐hoc test to compare the data of the radioconjugates. A p-value of < 0.05 was considered as statistically significant (GraphPad Prism software, version 8.3.1).

physchem = format: physicochemical; conditions: pH 7.4, logD value (n-octanol/PBS distribution coefficient)
Description: The n-octanol/phosphate buffered saline (PBS) distribution coefficients (logD values) of the radioconjugates (20 MBq/nmol) were determined using the shake-flask method, as previously reported (Supplementary material). The binding affinity of the radioconjugates (20 MBq/nmol) to serum proteins was assessed using an ultrafiltration assay as previously reported (Supplementary Material). Methods: A fixed amount of the respective radioconjugate (0.5 MBq, 25 µL) was added to radio-immunoassay (RIA) tubes containing a mixture of PBS pH 7.4 (1475 µL) and n-octanol (1500 µL). After vortexing vigorously for 1 min, the tubes were centrifuged (560 rcf) for 6 min to obtain phase separation. The activity in the organic and aqueous phases was determined using a γ-counter (Wallac Wizard 1480, PerkinElmer). The distribution coefficients were expressed as the logarithm of the ratio of counts per minute (cpm) measured in the n-octanol phase to the cpm measured in the PBS pH 7.4 phase and indicated as the average of three independent measurements ± SD, each performed with five replicates.

in vitro = in vitro ADME; conditions: plasma
Description: as §1

[3] = CD1/nude (Crl:CD1-Foxn nu), 1 h
[4] = CD1/nude (Crl:CD1-Foxn nu), 3 h
[5] = Crl:CD1-Foxn^nu (CD1/nude), 1 h
[6] = Crl:CD1-Foxn^nu (CD1/nude), 3 h
[7] = human, Fraction bound to human blood plasma proteins
[8] = mouse, Fraction bound to mouse blood plasma proteins
[9] = CD1/nude (Crl:CD1-Foxn nu), Biodistribution, Bone
[10] = CD1/nude (Crl:CD1-Foxn nu), Biodistribution, HEK-ACE xgft
[11] = CD1/nude (Crl:CD1-Foxn nu), Biodistribution, Muscle
[12] = CD1/nude (Crl:CD1-Foxn nu), Biodistribution, Salivary glands
[13] = CD1/nude (Crl:CD1-Foxn nu), Biodistribution, Stomach
[14] = Crl:CD1-Foxn^nu (CD1/nude), Biodistribution, Blood
[15] = Crl:CD1-Foxn^nu (CD1/nude), Biodistribution, Heart
[16] = Crl:CD1-Foxn^nu (CD1/nude), Biodistribution, Kidneys
[17] = Crl:CD1-Foxn^nu (CD1/nude), Biodistribution, Lung
[18] = Crl:CD1-Foxn^nu (CD1/nude), Biodistribution, Spleen
[19] = CD1/nude (Crl:CD1-Foxn nu), Biodistribution, Intestines
[20] = CD1/nude (Crl:CD1-Foxn nu), Biodistribution, Liver

## O=C(O)CN1CCN(CC(=O)O)CCN(CC(=O)NCCCC[C@H](NC(=O)CCCCCCCNC(=O)NCCCC[C@H](N[C@@H](CCc2ccccc2)C(=O)O)C(=O)N2CCC[C@H]2C(=O)O)C(=O)O)CCN(CC(=O)O)CC1 [[^44Sc]Sc-DOTA-LIS-02] [metal not drawn]
[1]
  Fraction bound to human blood plasma proteins: 49 ± 2%
[2]
  Fraction bound to mouse blood plasma proteins: 42 ± 4%
In vivo; [3]
  Biodistribution, Blood: 0.24 ± 0.03 %IA/g
  Biodistribution, Bone: 0.17 ± 0.02 %IA/g
  Biodistribution, Intestines: 0.16 ± 0.02 %IA/g
  Biodistribution, Liver: 0.14 ± 0.01 %IA/g
  Biodistribution, Muscle: 0.16 ± 0.02 %IA/g
  Biodistribution, Salivary glands: 0.19 ± 0.02 %IA/g
  Biodistribution, Stomach: 0.22 ± 0.15 %IA/g
In vivo; [4]
  Biodistribution, Bone: 0.07 ± 0.03 %IA/g
  Biodistribution, Intestines: 0.05 ± 0.01 %IA/g
  Biodistribution, Liver: 0.09 ± 0.01 %IA/g
  Biodistribution, Muscle: 0.07 ± 0.04 %IA/g
  Biodistribution, Salivary glands: 0.09 ± 0.05 %IA/g
  Biodistribution, Stomach: <0.05 %IA/g
In vivo; [5]
  Biodistribution, Heart: 0.18 ± 0.03 %IA/g
  Biodistribution, Kidneys: 6.1 ± 0.8 %IA/g
  Biodistribution, Lung: 2.0 ± 0.6 %IA/g
  Biodistribution, Spleen: 0.14 ± 0.05 %IA/g
In vivo; [6]
  Biodistribution, Blood: <0.05 %IA/g
  Biodistribution, Heart: <0.05 %IA/g
  Biodistribution, Kidneys: 0.75 ± 0.07 %IA/g
  Biodistribution, Lung: 0.13 ± 0.02 %IA/g
  Biodistribution, Spleen: 0.06 ± 0.01 %IA/g

## O=C(O)CN1CCN(CC(=O)O)CCN(CC(=O)NCCCC[C@H](NC(=O)CCCCCNC(=O)NCCCC[C@H](N[C@@H](CCc2ccccc2)C(=O)O)C(=O)N2CCC[C@H]2C(=O)O)C(=O)O)CCN(CC(=O)O)CC1 [[^67Ga]Ga-DOTA-LIS-01, metal not drawn]
physchem
  logD: -5.47 ± 0.17
In vitro; [7]
  fraction unbound at 30 min, 0.1 µM: 0.55
In vitro; [8]
  fraction unbound at 30 min, 0.1 µM: 0.54

## O=C(O)CN1CCN(CC(=O)O)CCN(CC(=O)NCCCC[C@H](NC(=O)CCCCCCCNC(=O)NCCCC[C@H](N[C@@H](CCc2ccccc2)C(=O)O)C(=O)N2CCC[C@H]2C(=O)O)C(=O)O)CCN(CC(=O)O)CC1 [[^67Ga]Ga-DOTA-LIS-02, metal not drawn]
In vitro; [7]
  fraction unbound at 30 min, 0.1 µM: 0.5 ± 0.01
In vitro; [8]
  fraction unbound at 30 min, 0.1 µM: 0.54
In vivo; CD1/nude (Crl:CD1-Foxn nu)
  tissue uptake at 1 h: 0.24 ± 0.01 %ID/g
  tissue uptake at 3 h: 0.08 ± 0.03 %ID/g
In vivo; [9]
  tissue uptake at 1 h: 0.14 ± 0.01 %ID/g
  tissue uptake at 3 h: < 0.05 %ID/g
In vivo; [10]
  tissue uptake at 1 h: 14 ± 3 %ID/g
  tissue uptake at 3 h: 16 ± 1 %ID/g
In vivo; [11]
  tissue uptake at 1 h: 0.1 ± 0.03 %ID/g
  tissue uptake at 3 h: < 0.05 %ID/g
In vivo; [12]
  tissue uptake at 1 h: 0.18 ± 0.04 %ID/g
  tissue uptake at 3 h: < 0.05 %ID/g
In vivo; [13]
  tissue uptake at 1 h: 0.16 ± 0.05 %ID/g
In vivo; [14]
  tissue uptake at 3 h: < 0.05 %ID/g
In vivo; [15]
  tissue uptake at 1 h: 0.2 ± 0.06 %ID/g
  tissue uptake at 3 h: < 0.05 %ID/g
In vivo; [16]
  tissue uptake at 1 h: 6.3 ± 1 %ID/g
  tissue uptake at 3 h: 1.1 ± 0.2 %ID/g
In vivo; [17]
  tissue uptake at 1 h: 2.4 ± 0.7 %ID/g
  tissue uptake at 3 h: 0.21 ± 0.05 %ID/g
In vivo; [18]
  tissue uptake at 3 h: 0.05 ± 0.01 %ID/g

## O=C(O)CN1CCN(CC(=O)O)CCN(CC(=O)NCCCC[C@H](NC(=O)CCCCCCCNC(=O)NCCCC[C@H](N[C@@H](CCc2ccccc2)C(=O)O)C(=O)N2CCC[C@H]2C(=O)O)C(=O)O)CCN(CC(=O)O)CC1 [[^67Ga]Ga-DOTA-LIS-02] [metal not drawn]
In vivo; [4]
  Biodistribution, Intestines: 0.22 ± 0.90 %IA/g
  Biodistribution, Liver: 0.76 ± 0.13 %IA/g
In vivo; [5]
  Biodistribution, Spleen: 0.51 ± 0.65 %IA/g

## O=C(O)CN1CCN(CC(=O)O)CCN(C(CCC(=O)NCCCC[C@H](NC(=O)CCCCCCCNC(=O)NCCCC[C@H](N[C@@H](CCc2ccccc2)C(=O)O)C(=O)N2CCC[C@H]2C(=O)O)C(=O)O)C(=O)O)CC1 (stereo partly shown) [[^67Ga]Ga-NODAGA-LIS-02, metal not drawn]
physchem
  logD: -5.04 ± 0.09
In vitro; [7]
  fraction unbound at 30 min, 0.1 µM: 0.46
In vitro; [8]
  fraction unbound at 30 min, 0.1 µM: 0.51
In vivo; CD1/nude (Crl:CD1-Foxn nu)
  tissue uptake at 1 h: 0.08 ± 0.01 %ID/g
  tissue uptake at 3 h: < 0.05 %ID/g
In vivo; [9]
  tissue uptake at 1 h: < 0.05 %ID/g
  tissue uptake at 3 h: < 0.05 %ID/g
In vivo; [10]
  tissue uptake at 1 h: 3.6 ± 0.9 %ID/g
  tissue uptake at 3 h: 5.2 ± 0.5 %ID/g
In vivo; [19]
  tissue uptake at 1 h: 23 ± 6 %ID/g
  tissue uptake at 3 h: 2.3 ± 1 %ID/g
In vivo; [20]
  tissue uptake at 1 h: 18 ± 1 %ID/g
  tissue uptake at 3 h: 9.6 ± 1.2 %ID/g
In vivo; [11]
  tissue uptake at 1 h: 0.11 ± 0.12 %ID/g
  tissue uptake at 3 h: < 0.05 %ID/g
In vivo; [12]
  tissue uptake at 1 h: < 0.05 %ID/g
  tissue uptake at 3 h: < 0.05 %ID/g
In vivo; [13]
  tissue uptake at 1 h: 0.31 ± 0.18 %ID/g
  tissue uptake at 3 h: 0.15 ± 0.1 %ID/g
In vivo; [14]
  tissue uptake at 3 h: < 0.05 %ID/g
In vivo; [15]
  tissue uptake at 1 h: < 0.05 %ID/g
  tissue uptake at 3 h: < 0.05 %ID/g
In vivo; [16]
  tissue uptake at 1 h: 1.7 ± 0.6 %ID/g
  tissue uptake at 3 h: 0.49 ± 0.13 %ID/g
In vivo; [17]
  tissue uptake at 1 h: 0.63 ± 0.06 %ID/g
  tissue uptake at 3 h: 0.11 ± 0.04 %ID/g
In vivo; [18]
  tissue uptake at 1 h: < 0.05 %ID/g
  tissue uptake at 3 h: < 0.05 %ID/g
